According to IntAct's records for PubMed 16803958:

B1: Protein CBFA2T1 (Homo sapiens), Q06455-4 (parent)
chain: MPDSPVDVKTQSRLTPPTMPPPPTTQGAPRTSSFTPTTLTNGTSHSPTALNGAPSPPNGFSNGPSSSSSSSLANQQLPPACGARQLSKLKRFLTTLQQFGNDISPEIGERVRTLVLGLVNSTLTIEEFHSKLQEATNFPLRPFVIPFLKANLPLLQRELLHCARLAKQNPAQYLAQHEQLLLDASTTSPVDSSELLLDVNENGKRRTPDRTKENGFDREPLHSEHPSKRPCTISPGQRYSPNNGLSYQPNGLPHPTPPPPQHYRLDDMAIAHHYRDSYRHPSHRDLRDRNRPMGLHGTRQEEMIDHRLTDREWAEEWKHLDHLLNCIMDMVEKTRRSLTVLRRCQEADREELNYWIRRYSDAEDLKKGGGSSSSHSRQQSPVNPDPVALDAHREFLHRPASGYVPEEIWKKAEEAVNEVKRQAMTELQKAVSEAERKAHDMITTERAKMERTVAEAKRQAAEDALAVINQQEDSSESCWNCGRKASETCSGCNTARYCGSFCQHKDWEKHHHICGQTLQAQQQGDTPAVSSSVTPNSGAGSPMDTPPAATPRSTTPGTPSTIETTPR

Variants of: B1
Conditions: with TCF12, Q99081-3
TCF12, Q99081-3, sequence (Q99081 other isoform, or with tags, fused parts or gaps): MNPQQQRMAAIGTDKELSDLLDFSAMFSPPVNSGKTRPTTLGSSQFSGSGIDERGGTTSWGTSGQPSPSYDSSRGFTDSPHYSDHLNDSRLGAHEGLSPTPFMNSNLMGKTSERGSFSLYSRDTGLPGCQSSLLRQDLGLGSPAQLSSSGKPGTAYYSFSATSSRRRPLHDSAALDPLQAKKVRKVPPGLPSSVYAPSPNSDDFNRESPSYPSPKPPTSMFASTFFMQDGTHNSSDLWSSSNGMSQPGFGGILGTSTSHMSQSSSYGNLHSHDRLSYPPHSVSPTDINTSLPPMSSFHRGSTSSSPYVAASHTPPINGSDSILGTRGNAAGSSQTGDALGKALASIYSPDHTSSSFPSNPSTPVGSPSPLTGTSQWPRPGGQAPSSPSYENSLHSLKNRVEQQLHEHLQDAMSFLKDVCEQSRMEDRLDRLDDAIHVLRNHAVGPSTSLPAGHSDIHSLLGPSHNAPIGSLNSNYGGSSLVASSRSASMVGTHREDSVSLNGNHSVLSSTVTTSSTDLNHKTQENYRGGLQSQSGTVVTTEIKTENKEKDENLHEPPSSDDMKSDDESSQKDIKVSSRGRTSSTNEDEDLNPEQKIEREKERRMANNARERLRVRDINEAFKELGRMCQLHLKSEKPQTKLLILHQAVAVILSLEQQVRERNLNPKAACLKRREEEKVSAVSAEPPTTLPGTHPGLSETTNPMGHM

Row | Variant | effect of a mutation on the interaction
1 | MPDSPVDVKTQSRLTPPTMPPPPTTQGAPRTSSFTPTTLTNGTSHSPTALNGAPSPPNGFSNGPSSSSSSSLANQQLPPACGARQLSKLKRFLTTAQQFGNDISPEIGERVRTLVLGLVNSTLTIEEFHSKLQEATNFPLRPFVIPFLKANLPLLQRELLHCARLAKQNPAQYLAQHEQLLLDASTTSPVDSSELLLDVNENGKRRTPDRTKENGFDREPLHSEHPSKRPCTISPGQRYSPNNGLSYQPNGLPHPTPPPPQHYRLDDMAIAHHYRDSYRHPSHRDLRDRNRPMGLHGTRQEEMIDHRLTDREWAEEWKHLDHLLNCIMDMVEKTRRSLTVLRRCQEADREELNYWIRRYSDAEDLKKGGGSSSSHSRQQSPVNPDPVALDAHREFLHRPASGYVPEEIWKKAEEAVNEVKRQAMTELQKAVSEAERKAHDMITTERAKMERTVAEAKRQAAEDALAVINQQEDSSESCWNCGRKASETCSGCNTARYCGSFCQHKDWEKHHHICGQTLQAQQQGDTPAVSSSVTPNSGAGSPMDTPPAATPRSTTPGTPSTIETTPR [L96A] | decreasing interaction strength
2 | MPDSPVDVKTQSRLTPPTMPPPPTTQGAPRTSSFTPTTLTNGTSHSPTALNGAPSPPNGFSNGPSSSSSSSLANQQLPPACGARQLSKLKRFLTTLQQFGNDISPEIGERVRTLVLGLVNSTLTIEEFHSKLQEATNFPLDPFVIPFLKANLPLLQRELLHCARLAKQNPAQYLAQHEQLLLDASTTSPVDSSELLLDVNENGKRRTPDRTKENGFDREPLHSEHPSKRPCTISPGQRYSPNNGLSYQPNGLPHPTPPPPQHYRLDDMAIAHHYRDSYRHPSHRDLRDRNRPMGLHGTRQEEMIDHRLTDREWAEEWKHLDHLLNCIMDMVEKTRRSLTVLRRCQEADREELNYWIRRYSDAEDLKKGGGSSSSHSRQQSPVNPDPVALDAHREFLHRPASGYVPEEIWKKAEEAVNEVKRQAMTELQKAVSEAERKAHDMITTERAKMERTVAEAKRQAAEDALAVINQQEDSSESCWNCGRKASETCSGCNTARYCGSFCQHKDWEKHHHICGQTLQAQQQGDTPAVSSSVTPNSGAGSPMDTPPAATPRSTTPGTPSTIETTPR [R141D] | disrupting interaction strength
3 | MPDSPVDVKTQSRLTPPTMPPPPTTQGAPRTSSFTPTTLTNGTSHSPTALNGAPSPPNGFSNGPSSSSSSSLANQQLPPACGARQLSKLKRFLTTLQQFGNDISPEIGERVRTLVLGLVNSTLTIEEFHSKLQEATNFPLRPFVIPALKANLPLLQRELLHCARLAKQNPAQYLAQHEQLLLDASTTSPVDSSELLLDVNENGKRRTPDRTKENGFDREPLHSEHPSKRPCTISPGQRYSPNNGLSYQPNGLPHPTPPPPQHYRLDDMAIAHHYRDSYRHPSHRDLRDRNRPMGLHGTRQEEMIDHRLTDREWAEEWKHLDHLLNCIMDMVEKTRRSLTVLRRCQEADREELNYWIRRYSDAEDLKKGGGSSSSHSRQQSPVNPDPVALDAHREFLHRPASGYVPEEIWKKAEEAVNEVKRQAMTELQKAVSEAERKAHDMITTERAKMERTVAEAKRQAAEDALAVINQQEDSSESCWNCGRKASETCSGCNTARYCGSFCQHKDWEKHHHICGQTLQAQQQGDTPAVSSSVTPNSGAGSPMDTPPAATPRSTTPGTPSTIETTPR [F147A] | disrupting interaction strength
4 | MPDSPVDVKTQSRLTPPTMPPPPTTQGAPRTSSFTPTTLTNGTSHSPTALNGAPSPPNGFSNGPSSSSSSSLANQQLPPACGARQLSDLKRFLTTLQQFGNDISPEIGERVRTLVLGLVNSTLTIEEFHSKLQEATNFPLRPFVIPFLKANLPLLQRELLHCARLAKQNPAQYLAQHEQLLLDASTTSPVDSSELLLDVNENGKRRTPDRTKENGFDREPLHSEHPSKRPCTISPGQRYSPNNGLSYQPNGLPHPTPPPPQHYRLDDMAIAHHYRDSYRHPSHRDLRDRNRPMGLHGTRQEEMIDHRLTDREWAEEWKHLDHLLNCIMDMVEKTRRSLTVLRRCQEADREELNYWIRRYSDAEDLKKGGGSSSSHSRQQSPVNPDPVALDAHREFLHRPASGYVPEEIWKKAEEAVNEVKRQAMTELQKAVSEAERKAHDMITTERAKMERTVAEAKRQAAEDALAVINQQEDSSESCWNCGRKASETCSGCNTARYCGSFCQHKDWEKHHHICGQTLQAQQQGDTPAVSSSVTPNSGAGSPMDTPPAATPRSTTPGTPSTIETTPR [K88D] | disrupting interaction strength
5 | MPDSPVDVKTQSRLTPPTMPPPPTTQGAPRTSSFTPTTLTNGTSHSPTALNGAPSPPNGFSNGPSSSSSSSLANQQLPPACGARQLSKLKDFLTTLQQFGNDISPEIGERVRTLVLGLVNSTLTIEEFHSKLQEATNFPLRPFVIPFLKANLPLLQRELLHCARLAKQNPAQYLAQHEQLLLDASTTSPVDSSELLLDVNENGKRRTPDRTKENGFDREPLHSEHPSKRPCTISPGQRYSPNNGLSYQPNGLPHPTPPPPQHYRLDDMAIAHHYRDSYRHPSHRDLRDRNRPMGLHGTRQEEMIDHRLTDREWAEEWKHLDHLLNCIMDMVEKTRRSLTVLRRCQEADREELNYWIRRYSDAEDLKKGGGSSSSHSRQQSPVNPDPVALDAHREFLHRPASGYVPEEIWKKAEEAVNEVKRQAMTELQKAVSEAERKAHDMITTERAKMERTVAEAKRQAAEDALAVINQQEDSSESCWNCGRKASETCSGCNTARYCGSFCQHKDWEKHHHICGQTLQAQQQGDTPAVSSSVTPNSGAGSPMDTPPAATPRSTTPGTPSTIETTPR [R91D] | disrupting interaction strength
6 | MPDSPVDVKTQSRLTPPTMPPPPTTQGAPRTSSFTPTTLTNGTSHSPTALNGAPSPPNGFSNGPSSSSSSSLANQQLPPACGARQLSKAKRFLTTLQQFGNDISPEIGERVRTLVLGLVNSTLTIEEFHSKLQEATNFPLRPFVIPFLKANLPLLQRELLHCARLAKQNPAQYLAQHEQLLLDASTTSPVDSSELLLDVNENGKRRTPDRTKENGFDREPLHSEHPSKRPCTISPGQRYSPNNGLSYQPNGLPHPTPPPPQHYRLDDMAIAHHYRDSYRHPSHRDLRDRNRPMGLHGTRQEEMIDHRLTDREWAEEWKHLDHLLNCIMDMVEKTRRSLTVLRRCQEADREELNYWIRRYSDAEDLKKGGGSSSSHSRQQSPVNPDPVALDAHREFLHRPASGYVPEEIWKKAEEAVNEVKRQAMTELQKAVSEAERKAHDMITTERAKMERTVAEAKRQAAEDALAVINQQEDSSESCWNCGRKASETCSGCNTARYCGSFCQHKDWEKHHHICGQTLQAQQQGDTPAVSSSVTPNSGAGSPMDTPPAATPRSTTPGTPSTIETTPR [L89A] | decreasing interaction strength
7 | MPDSPVDVKTQSRLTPPTMPPPPTTQGAPRTSSFTPTTLTNGTSHSPTALNGAPSPPNGFSNGPSSSSSSSLANQQLPPACGARQLSKLKRALTTLQQFGNDISPEIGERVRTLVLGLVNSTLTIEEFHSKLQEATNFPLRPFVIPFLKANLPLLQRELLHCARLAKQNPAQYLAQHEQLLLDASTTSPVDSSELLLDVNENGKRRTPDRTKENGFDREPLHSEHPSKRPCTISPGQRYSPNNGLSYQPNGLPHPTPPPPQHYRLDDMAIAHHYRDSYRHPSHRDLRDRNRPMGLHGTRQEEMIDHRLTDREWAEEWKHLDHLLNCIMDMVEKTRRSLTVLRRCQEADREELNYWIRRYSDAEDLKKGGGSSSSHSRQQSPVNPDPVALDAHREFLHRPASGYVPEEIWKKAEEAVNEVKRQAMTELQKAVSEAERKAHDMITTERAKMERTVAEAKRQAAEDALAVINQQEDSSESCWNCGRKASETCSGCNTARYCGSFCQHKDWEKHHHICGQTLQAQQQGDTPAVSSSVTPNSGAGSPMDTPPAATPRSTTPGTPSTIETTPR [F92A] | disrupting interaction strength

More lines, now with the values ahead:

Row | effect of a mutation on the interaction | Variant
8 | disrupting interaction strength | MPDSPVDVKTQSRLTPPTMPPPPTTQGAPRTSSFTPTTLTNGTSHSPTALNGAPSPPNGFSNGPSSSSSSSLANQQLPPACGARQLSKLKRFLTTLQQFGNDISPEIGERVRTLVLGLVNSTLTIEEFHSKLQEATNFPLAPFVIPFLKANLPLLQRELLHCARLAKQNPAQYLAQHEQLLLDASTTSPVDSSELLLDVNENGKRRTPDRTKENGFDREPLHSEHPSKRPCTISPGQRYSPNNGLSYQPNGLPHPTPPPPQHYRLDDMAIAHHYRDSYRHPSHRDLRDRNRPMGLHGTRQEEMIDHRLTDREWAEEWKHLDHLLNCIMDMVEKTRRSLTVLRRCQEADREELNYWIRRYSDAEDLKKGGGSSSSHSRQQSPVNPDPVALDAHREFLHRPASGYVPEEIWKKAEEAVNEVKRQAMTELQKAVSEAERKAHDMITTERAKMERTVAEAKRQAAEDALAVINQQEDSSESCWNCGRKASETCSGCNTARYCGSFCQHKDWEKHHHICGQTLQAQQQGDTPAVSSSVTPNSGAGSPMDTPPAATPRSTTPGTPSTIETTPR [R141A]
9 | disrupting interaction strength | MPDSPVDVKTQSRLTPPTMPPPPTTQGAPRTSSFTPTTLTNGTSHSPTALNGAPSPPNGFSNGPSSSSSSSLANQQLPPACGARQLSALKRFLTTLQQFGNDISPEIGERVRTLVLGLVNSTLTIEEFHSKLQEATNFPLRPFVIPFLKANLPLLQRELLHCARLAKQNPAQYLAQHEQLLLDASTTSPVDSSELLLDVNENGKRRTPDRTKENGFDREPLHSEHPSKRPCTISPGQRYSPNNGLSYQPNGLPHPTPPPPQHYRLDDMAIAHHYRDSYRHPSHRDLRDRNRPMGLHGTRQEEMIDHRLTDREWAEEWKHLDHLLNCIMDMVEKTRRSLTVLRRCQEADREELNYWIRRYSDAEDLKKGGGSSSSHSRQQSPVNPDPVALDAHREFLHRPASGYVPEEIWKKAEEAVNEVKRQAMTELQKAVSEAERKAHDMITTERAKMERTVAEAKRQAAEDALAVINQQEDSSESCWNCGRKASETCSGCNTARYCGSFCQHKDWEKHHHICGQTLQAQQQGDTPAVSSSVTPNSGAGSPMDTPPAATPRSTTPGTPSTIETTPR [K88A]
10 | disrupting interaction strength | MPDSPVDVKTQSRLTPPTMPPPPTTQGAPRTSSFTPTTLTNGTSHSPTALNGAPSPPNGFSNGPSSSSSSSLANQQLPPACGARQLSKAKRFLTTLQQFGNDISPEIGERVRTLVLGLVNSTLTIEEFHSKLQEATNFPLDPFVIPFLKANLPLLQRELLHCARLAKQNPAQYLAQHEQLLLDASTTSPVDSSELLLDVNENGKRRTPDRTKENGFDREPLHSEHPSKRPCTISPGQRYSPNNGLSYQPNGLPHPTPPPPQHYRLDDMAIAHHYRDSYRHPSHRDLRDRNRPMGLHGTRQEEMIDHRLTDREWAEEWKHLDHLLNCIMDMVEKTRRSLTVLRRCQEADREELNYWIRRYSDAEDLKKGGGSSSSHSRQQSPVNPDPVALDAHREFLHRPASGYVPEEIWKKAEEAVNEVKRQAMTELQKAVSEAERKAHDMITTERAKMERTVAEAKRQAAEDALAVINQQEDSSESCWNCGRKASETCSGCNTARYCGSFCQHKDWEKHHHICGQTLQAQQQGDTPAVSSSVTPNSGAGSPMDTPPAATPRSTTPGTPSTIETTPR [L89A;R141D]
11 | disrupting interaction strength | MPDSPVDVKTQSRLTPPTMPPPPTTQGAPRTSSFTPTTLTNGTSHSPTALNGAPSPPNGFSNGPSSSSSSSLANQQLPPACGARQLSKLKRALTTLQQFGNDISPEIGERVRTLVLGLVNSTLTIEEFHSKLQEATNFPLRPFVIPALKANLPLLQRELLHCARLAKQNPAQYLAQHEQLLLDASTTSPVDSSELLLDVNENGKRRTPDRTKENGFDREPLHSEHPSKRPCTISPGQRYSPNNGLSYQPNGLPHPTPPPPQHYRLDDMAIAHHYRDSYRHPSHRDLRDRNRPMGLHGTRQEEMIDHRLTDREWAEEWKHLDHLLNCIMDMVEKTRRSLTVLRRCQEADREELNYWIRRYSDAEDLKKGGGSSSSHSRQQSPVNPDPVALDAHREFLHRPASGYVPEEIWKKAEEAVNEVKRQAMTELQKAVSEAERKAHDMITTERAKMERTVAEAKRQAAEDALAVINQQEDSSESCWNCGRKASETCSGCNTARYCGSFCQHKDWEKHHHICGQTLQAQQQGDTPAVSSSVTPNSGAGSPMDTPPAATPRSTTPGTPSTIETTPR [F92A;F147A]
